Measured values published in the supplement of paper PMC10567573.
± gives the standard deviation.

Assay: protein stability index of a GFP-peptide fusion (GPS, HEK-293T) (PSI 1-6); higher = more stable
[1] = treatment: DMSO, c terminus: a fixed tail appended
[2] = treatment: MLN4924 1 uM, 8 h, c terminus: a fixed tail appended
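Also: 24-mer peptide tiles fused after GFP, lentivirally expressed, FACS-sorted into six equal bins by GFP/DsRed ratio, decoded by Illumina sequencing, PSI is the read-weighted mean bin number.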

## VPTTPGPASGSTFRGRRDVSGSWE [RETREG3]
[1]
  protein stability index: 4.37 ± 0.2
[2]
  protein stability index: 4.44 ± 0.15

## PVKKQLQGASWELQSLRPHDEDIK [ZNF396]
[1]
  protein stability index: 4.62 ± 0.21
[2]
  protein stability index: 4.72 ± 0.38

## IRMIVRGTLGSCSSSSECLEDSTM [PLK2]
[1]
  protein stability index: 2.3 ± 0.3
[2]
  protein stability index: 2.25 ± 0.12

## FKAHKSVLAARSPVFNAMFEHEME [SPOPL]
[1]
  protein stability index: 3.17 ± 0.41
[2]
  protein stability index: 3.17 ± 0.32

## MMRTQCLLGLRTFVAFAAKLWSFF [CTDNEP1]
[1]
  protein stability index: 4.22 ± 0.2
[2]
  protein stability index: 4.02 ± 0.29

## VSEAGGSGRLSASWEPLSGPSTPS [FCHO1]
[1]
  protein stability index: 4.54 ± 0.17
[2]
  protein stability index: 4.74 ± 0.2

## DEPTFKVLLKTADPRYELPSRKYI [ZBED1]
[1]
  protein stability index: 2.81 ± 0.26
[2]
  protein stability index: 3.19 ± 0.4

## EFKSSFSQSFSLYVKYQVAIHQDP [ATE1]
[1]
  protein stability index: 2.63 ± 0.95
[2]
  protein stability index: 2.52 ± 0.95

## DMFDADGGGDISVKELGTVMRMLG [TNNC2]
[2]
  protein stability index: 2.58 ± 0.16

## TMQLFSKQNPSRQEVTKLQQQVKT [FBXO28]
[1]
  protein stability index: 3.74 ± 0.2
[2]
  protein stability index: 3.75 ± 0.28

## CHELLGHVPLLAEPSFAQFSQEIG [TPH1]
[1]
  protein stability index: 3.1 ± 0.27
[2]
  protein stability index: 3.02 ± 0.26

## TNFVVQVSVFIGVLIDLWKITKVM [CLPTM1]
[1]
  protein stability index: 3.1 ± 0.67
[2]
  protein stability index: 3.39 ± 0.72

## HMEALEIAANLENKATNTDHLTTV [C8orf76]
[1]
  protein stability index: 4.76 ± 0.18
[2]
  protein stability index: 4.78 ± 0.23

## LLELQSQQACTHTKETEQLRSQLQ [CCDC89]
[1]
  protein stability index: 4.06 ± 0.32
[2]
  protein stability index: 4.29 ± 0.25

## REVKVLLDQLRFPNGVQLSPAEDF [APMAP]
[1]
  protein stability index: 2.97 ± 0.4
[2]
  protein stability index: 2.95 ± 0.5

## LMTSKPAEVVKILQTMLRQSAFLH [INTS4]
[1]
  protein stability index: 2.78 ± 0.41
[2]
  protein stability index: 2.43 ± 0.29

## DVTSGDHGDYFRLLLPGIYTVSAT [CPN1]
[1]
  protein stability index: 2.29 ± 0.57
[2]
  protein stability index: 2.02 ± 0.23

## GKPLAGIYRKREEKRNAGNAVRSA [KMT5A]
[1]
  protein stability index: 4.24 ± 0.35
[2]
  protein stability index: 4.39 ± 0.19

## DNDRTTPSDLDSTGNSLNEPEEPS [DLC1]
[1]
  protein stability index: 5.61 ± 0.21
[2]
  protein stability index: 5.63 ± 0.11

## KGGISETRIEKRIVITGDADIDHD [EPB41L3]
[1]
  protein stability index: 5.31 ± 0.2
[2]
  protein stability index: 5.16 ± 0.51

## GWVSGQLRYSVVEESEPGTLVGNV [PCDHGC5]
[1]
  protein stability index: 3.03 ± 0.24
[2]
  protein stability index: 3.07 ± 0.22

## YITKVSEEVTRLGAQVKELEEKCQ [TRIM15]
[1]
  protein stability index: 4.07 ± 0.24
[2]
  protein stability index: 4.22 ± 0.37

## FKPKLYKGDRGLPLEGSAKGKVQA [RBBP5]
[1]
  protein stability index: 3.96 ± 0.44
[2]
  protein stability index: 3.98 ± 0.27

## ALSPAGVCGGAQRPGHLPGLLLGS [CDC25B]
[1]
  protein stability index: 2.51 ± 0.22
[2]
  protein stability index: 2.93 ± 0.46

## PVVWWLNLLSIALYLLSGSIIAVA [POMT2]
[1]
  protein stability index: 3.27 ± 0.14
[2]
  protein stability index: 3.43 ± 0.18

## DDRVLSSLVRDTIARVHGTFGAAA [POP5]
[1]
  protein stability index: 2.89 ± 0.29
[2]
  protein stability index: 2.96 ± 0.23

## TLQQFNIKLRPPGAEKPSWLEEQ [ARFIP2]
treatment: DMSO, c terminus: native
  protein stability index: 3.55 ± 0.34
treatment: MLN4924 1 uM, 8 h, c terminus: native
  protein stability index: 3.62 ± 0.35

## EDEDEDEDEDEDKEEEEEDCSEEY [TAF7L]
[1]
  protein stability index: 5.65 ± 0.31
[2]
  protein stability index: 5.58 ± 0.13

## FGHLINGAIAVFVYASDKEWIRFD [PTGFR]
[1]
  protein stability index: 3.1 ± 0.29
[2]
  protein stability index: 3.1 ± 0.38

## ESGDEVPVELYTAFQHTPTSITLT [KMT2E]
[1]
  protein stability index: 2.73 ± 0.97
[2]
  protein stability index: 3.65 ± 0.62

## LKDDIYIRYQSFNNQSDLEKEMQK [PRIM1]
[1]
  protein stability index: 4.41 ± 0.08
[2]
  protein stability index: 4.27 ± 0.26

## RADPLVCATGLLGSAPFLFLSLAC [SPNS1]
[1]
  protein stability index: 3.37 ± 0.32
[2]
  protein stability index: 3.04 ± 0.22

## VTLRQVLAAKERHCGELKRRLGLS [TPD52L2]
[1]
  protein stability index: 2.35 ± 0.28
[2]
  protein stability index: 2.67 ± 0.2

## GGAGKEGVRVNNRFELINIDDLED [TCF25]
[1]
  protein stability index: 4.82 ± 0.49
[2]
  protein stability index: 4.91 ± 0.28

## KLFDDCTQQFKAEKLKEKLKMKER [PPP2R5C]
[1]
  protein stability index: 3.43 ± 0.14
[2]
  protein stability index: 3.71 ± 0.15

## LIKKKKEELEAKRLQCPFEQELLR [FAM107A]
[1]
  protein stability index: 3.66 ± 0.12
[2]
  protein stability index: 3.71 ± 0.15

## VKVHGLLKTFVKQTDHIKGIRQIT [GFOD1]
[1]
  protein stability index: 2.53 ± 0.38
[2]
  protein stability index: 2.34 ± 0.41

## FGGQDENKQTLSSGEKYDPDANTW [GAN]
[1]
  protein stability index: 5.06 ± 0.074
[2]
  protein stability index: 5.01 ± 0.35

## RSLQRGCRALRDPALDSLAYEYER [TRADD]
[1]
  protein stability index: 3.13 ± 0.059
[2]
  protein stability index: 3.47 ± 0.32

## GGDHRYVNNYTNSFGGEWSAPDTM [TRIM29]
[1]
  protein stability index: 3.51 ± 0.44
[2]
  protein stability index: 3.51 ± 0.32

## SSNFHINVEESVDGQVVSSHKREI [KRT15]
[1]
  protein stability index: 4.7 ± 0.18
[2]
  protein stability index: 4.68 ± 0.18

## LEEVNDEGYTPLMEAAREGHEEMV [ANKRD17]
[1]
  protein stability index: 5.49 ± 0.08
[2]
  protein stability index: 5.52 ± 0.23

## SSTNFAMKRDVQEGQARCLAHLGR [C8orf76]
[1]
  protein stability index: 3.66 ± 0.058
[2]
  protein stability index: 3.68 ± 0.28

## FTKNNFFVEKNPTIVNFPITNVDL [USP39]
[1]
  protein stability index: 2.98 ± 0.52
[2]
  protein stability index: 2.7 ± 0.29

## RMLHRSTQTTNDGVCQSMCHDKYT [ZMYND11]
[1]
  protein stability index: 3.94 ± 0.18
[2]
  protein stability index: 4.04 ± 0.32

## RPVNKLAELQCEVAALREEQKVLS [RASAL3]
[1]
  protein stability index: 3.99 ± 0.35
[2]
  protein stability index: 4.19 ± 0.26

## DYRPMNHEAFKDELKTFRLKTRSW [CDC25B]
[1]
  protein stability index: 3.46 ± 0.27
[2]
  protein stability index: 3.41 ± 0.25

## DEDDVDQELANIDPTWIESPKTNG [SRPK2]
[1]
  protein stability index: 5.23 ± 0.63
[2]
  protein stability index: 5.2 ± 0.36

## FQAPCQRCGKFLQDGLPPTWRDFR [MED27]
[1]
  protein stability index: 2.56 ± 0.72
[2]
  protein stability index: 2.28 ± 0.33

## PSGTPTNLRRHVPDLESGSESGAD [DLC1]
[1]
  protein stability index: 5.47 ± 0.33
[2]
  protein stability index: 5.46 ± 0.1

## GHVLLTDSEFSMQEPMVPAKLGTQ [PPFIA4]
[1]
  protein stability index: 4.31 ± 0.1
[2]
  protein stability index: 3.94 ± 0.26

## PEFVAPEIVNYEPLGLEADMWSIG [DAPK3]
[1]
  protein stability index: 3.46 ± 0.24
[2]
  protein stability index: 3.93 ± 0.7

## EEEGGEEEEEAAMYEEEMEREEIT [FAM50A]
[1]
  protein stability index: 5.6 ± 0.13
[2]
  protein stability index: 5.71 ± 0.11

## VGALLVYDIAKHLTYENVERWLKE [RAB11A]
[1]
  protein stability index: 2.54 ± 0.32
[2]
  protein stability index: 2.32 ± 0.54

## GIFQAMCLLICAEMYQVSRLQHIC [RHOBTB3]
[1]
  protein stability index: 2.99 ± 0.59
[2]
  protein stability index: 3.09 ± 0.34

## QHLPAQEQWDRLLVLYPTSLAIFS [PLEKHN1]
[1]
  protein stability index: 2.55 ± 0.53
[2]
  protein stability index: 2.6 ± 0.59

## LEGYISNLRKQLETLSGDRVRLDS [KRT71]
[1]
  protein stability index: 3.17 ± 0.4
[2]
  protein stability index: 3.26 ± 0.35

## LSLASLLVYVAAFSIGLGPMPWLV [SLC2A12]
[1]
  protein stability index: 2.93 ± 0.37
[2]
  protein stability index: 2.79 ± 0.68
